Measured values as given in the supplement of paper PMC12042874.
± gives the uncertainty stated by the source.

Assay: amyloid nucleation score (Sup35N fusion, yeast selection) (log enrichment); library NNK3; higher = more nucleation; inactive = no reads after selection
Summary of the method: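 In psi-negative yeast, Sup35N fusions carrying peptides of 20 random codons were induced with 100 μM copper sulfate for 24 hours. The cells then grew 7 days at 30°C on medium lacking adenine and uracil, and plasmid inserts from input and output were Illumina-sequenced, excluding sequences with under 100 input reads. Nucleation score is the DiMSum log enrichment of output over input reads, centred on the mode score of non-aggregating sequences.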
NNFRVNVHIIALVPECYFRL showed an amyloid nucleation score of 2.44 ± 0.077.
With IWWNHCEHHMLRSSLRVRAY the amyloid nucleation score was “inactive”.
With SQASLFFSGWWILFTYMLGW the amyloid nucleation score was “inactive”.
In the case of VNSRCI, the amyloid nucleation score is reported as “inactive”.
In the case of YLKGTMSDSKNGPYDRGKLT, the amyloid nucleation score is reported as “inactive”.
For LNCPSYPNVGPWNLEVTAFQ, the amyloid nucleation score was “inactive”.
In the case of WLIFYVYIVGDPAWLLVFMS, the amyloid nucleation score is reported as “inactive”.
With FDGTVVSR the amyloid nucleation score was “inactive”.
In the case of RMLPRLQDAR, the amyloid nucleation score is reported as “inactive”.
For IIAPSGVGWYWR, the amyloid nucleation score was “inactive”.
For NWAGLHIVKYRLPPHTHLWH, the amyloid nucleation score was “inactive”.
For ASYYF, the amyloid nucleation score was “inactive”.
With FYPLYSNEHCCG the amyloid nucleation score was “inactive”.
In the case of FQMVA, the amyloid nucleation score is reported as “inactive”.
In the case of NFFCASRVMGLLMIF, the amyloid nucleation score is reported as “inactive”.
In the case of PKNLFISRLPL, the amyloid nucleation score is reported as “inactive”.
In the case of FRSAN, the amyloid nucleation score is reported as “inactive”.
In the case of VWDNMMIFLYWFFLKSCSHG, the amyloid nucleation score is reported as “inactive”.
With HSDCDRTVTSGVELDSYGWT the amyloid nucleation score was “inactive”.
In the case of WGSLMFRVYTKMFEALERVL, the amyloid nucleation score is reported as “inactive”.
In the case of REVMWKICFRKINYVGYSGK, the amyloid nucleation score is reported as “inactive”.
In the case of FGVIRHERMEMWRHRSNRCV, the amyloid nucleation score is reported as “inactive”.
In the case of LFGCNERCFYFAF, the amyloid nucleation score is reported as “inactive”.
LHRLMLTRCVPGFV showed an amyloid nucleation score of -0.443 ± 0.98.
For VQRSYWICQLPAGVSWSGI, the amyloid nucleation score was “inactive”.
For VARISYLEIHNGETNFTYWF, the amyloid nucleation score was 2.47 ± 0.062.
With ILVFVFSLRRIFAYMAVMSG the amyloid nucleation score was “inactive”.
With TWYRCD the amyloid nucleation score was “inactive”.
In the case of TFPLAECRWIVWRLDDSLM, the amyloid nucleation score is reported as “inactive”.
In the case of SSGNMCFYPAPGYYWIATSK, the amyloid nucleation score is reported as “inactive”.
For YACRMKEFYGCILSRVRVWL, the amyloid nucleation score was “inactive”.
For RNKSVVPHVLRELCFMVWLV, the amyloid nucleation score was “inactive”.
In the case of YRGWLNPEYHRLVN, the amyloid nucleation score is reported as 0.008 ± 0.85.
With ICFGDKVRIKFFVPSIFSWY the amyloid nucleation score was “inactive”.
Work on VNMMRDVVIDKVLFLSSHVA yielded an amyloid nucleation score of 1.48 ± 0.12.
VRVTVLFEIHGDVCMLMSVA showed an amyloid nucleation score of 0.827 ± 0.13.
With YSGTKY the amyloid nucleation score was “inactive”.
For NGLVCQKWRPYSI, the amyloid nucleation score was “inactive”.
For FIPPSLCIITS, the amyloid nucleation score was “inactive”.
With LISTNKRHTAWRYCRGIPLE the amyloid nucleation score was “inactive”.
In the case of VSLRQVS, the amyloid nucleation score is reported as “inactive”.
For NFFVKTNRHGNVTTFGGR, the amyloid nucleation score was “inactive”.
KYCNFTGVFWQTNIFTVVPM gave an amyloid nucleation score of 2.17 ± 0.087.
For KLQYYVALSAT, the amyloid nucleation score was “inactive”.
For NESFGTARSAGDGMKNVPGP, the amyloid nucleation score was “inactive”.
In the case of SGPGRSACSFYNAIFMRRFQ, the amyloid nucleation score is reported as “inactive”.
With HRWNMSWFGYFNLRLSVIET the amyloid nucleation score was “inactive”.
For WRHDMSIFQAQLSTLVGI, the amyloid nucleation score was “inactive”.
For FPKLAIVFMHSSLWYFSYWV, the amyloid nucleation score was “inactive”.
In the case of SNGWFYFCFVSWWHSSFDGS, the amyloid nucleation score is reported as “inactive”.
For IYIRVRMDEFLMSVTTIARG, the amyloid nucleation score was “inactive”.
In the case of SAPRAEVSNRIK, the amyloid nucleation score is reported as “inactive”.
With SMIGQSVEFYLISCYRGLCT the amyloid nucleation score was “inactive”.
In the case of QWKKWLDTACKWVGVGGTIR, the amyloid nucleation score is reported as “inactive”.
For LYLFMAYGVLGVLRQ, the amyloid nucleation score was 0.397 ± 0.42.
LILGTNYQIY gave an amyloid nucleation score of 1.27 ± 0.17.
With EPKLDNV the amyloid nucleation score was “inactive”.
For FHYRENVNREHSPFWSREMV, the amyloid nucleation score was “inactive”.
With VHFSVMVGKKDDPSLF the amyloid nucleation score was “inactive”.
With LRKRRGPK the amyloid nucleation score was “inactive”.
With SASCKYGVCLSDLLVSDWHY the amyloid nucleation score was “inactive”.
In the case of VMCFYRLLNVIQWTTANVFG, the amyloid nucleation score is reported as “inactive”.
In the case of KTMVYGIQANDGWLVHGGFL, the amyloid nucleation score is reported as “inactive”.
For NFGQKQNIWAWTVYCPDPCE, the amyloid nucleation score was “inactive”.
In the case of YCVSGMVMCCH, the amyloid nucleation score is reported as “inactive”.
For IMRSY, the amyloid nucleation score was “inactive”.
For TFYDDYQDLQKLFARFWLPV, the amyloid nucleation score was “inactive”.
In the case of SNGVRSRLLE, the amyloid nucleation score is reported as “inactive”.
Substance NTSWLNSWATVITIWPYCAL has an amyloid nucleation score of 0.724 ± 0.2.
For KGSLGVPWLLVNSGLINGC, the amyloid nucleation score was “inactive”.
For DQHFCKSEREGTRYWLRLTI, the amyloid nucleation score was “inactive”.
In the case of SFMACRLCGRAVDDIVEYTV, the amyloid nucleation score is reported as “inactive”.
In the case of FDGVGYATSIMEGNDSG, the amyloid nucleation score is reported as “inactive”.
With EKRPNPVSICLRWIKEKAT the amyloid nucleation score was “inactive”.
In the case of LSNDQSDTMEKCRRSVTLW, the amyloid nucleation score is reported as “inactive”.
In the case of GVFDYTYGRLVAVFKGFGNY, the amyloid nucleation score is reported as “inactive”.
With IDQCNIVGTRKNGHAL the amyloid nucleation score was “inactive”.
With SNITAVYAVVTNIRWLYVRT the amyloid nucleation score was “inactive”.
With YSINTFLICYYMVRPY the amyloid nucleation score was 2.36 ± 0.065.
In the case of LTSPREMAWCPHDTAICGTT, the amyloid nucleation score is reported as “inactive”.
For GELRPLIVGDNLGLS, the amyloid nucleation score was “inactive”.
Work on QFSNNSLKVRFMCVLYVVDR yielded an amyloid nucleation score of -0.039 ± 0.37.
For TFFEVGRQYELAVGKSRSSM, the amyloid nucleation score was “inactive”.
With VLVESDLSVIATVSGLLCAR the amyloid nucleation score was “inactive”.
With NMRCSIHARGSRHGVRDDTQ the amyloid nucleation score was “inactive”.
HVVFNIIFWYSGRIGLSDIT gave an amyloid nucleation score of 1.94 ± 0.084.
In the case of MVLGELCVPGIFALCRFECN, the amyloid nucleation score is reported as “inactive”.
For VPKPD, the amyloid nucleation score was “inactive”.
For RCSCCCCNALANDRRVCMVE, the amyloid nucleation score was “inactive”.
For STTVLQQSLLKNKNLSWDAS, the amyloid nucleation score was “inactive”.
For ICYRWY, the amyloid nucleation score was 0.192 ± 0.19.
For WRTSMVASILRVRWEYLKWK, the amyloid nucleation score was “inactive”.
For LHVLDYDPDLRCFQMLYMCG, the amyloid nucleation score was “inactive”.
In the case of ESCGRSQHPKEAKELESGAG, the amyloid nucleation score is reported as “inactive”.
With LSSMWWLVRFYNFAF the amyloid nucleation score was “inactive”.
Work on AVTYENRSNLIVKVLVI yielded an amyloid nucleation score of -0.363 ± 0.27.
In the case of RTGPTRALRVLHLDAMDALV, the amyloid nucleation score is reported as “inactive”.
For SLLWCKANPKRF, the amyloid nucleation score was “inactive”.
For NRRIMVSSFRKVFLSGYGWF, the amyloid nucleation score was “inactive”.
For LSFWVSYLGIVFLQNICEEW, the amyloid nucleation score was “inactive”.
With FLNFSGLPGFVCPVIPSHYV the amyloid nucleation score was “inactive”.
Work on CYNWHMFTEYCCSSSQARSM yielded an amyloid nucleation score of 0.195 ± 0.57.
With HCLLCNYRLWSACKCPGYVS the amyloid nucleation score was “inactive”.
For WCRVIRTSGIYLGCASSGVV, the amyloid nucleation score was “inactive”.
IVYGPCYTLYVRCSVFSLSK gave an amyloid nucleation score of 2.31 ± 0.063.
In the case of VWLMGMTYF, the amyloid nucleation score is reported as “inactive”.
With TVVDLVIFG the amyloid nucleation score was “inactive”.
For LSRINSCRLMVQVQLSRT, the amyloid nucleation score was “inactive”.
For HTYDCAAFCPAGAGNR, the amyloid nucleation score was “inactive”.
With KYFRNIYWHISRRIWAKAPG the amyloid nucleation score was “inactive”.
With ASGSHSVT the amyloid nucleation score was “inactive”.
With IKFSEWMNVGIVWWHYLISG the amyloid nucleation score was “inactive”.
With IATIFGVHFRQNDDWIVALY the amyloid nucleation score was “inactive”.
With ARSDHYYAVIGDVRMNILPI the amyloid nucleation score was “inactive”.
In the case of YRMICPAIV, the amyloid nucleation score is reported as “inactive”.
For WYLSYSTIAFHYWEFYGYAD, the amyloid nucleation score was “inactive”.
For FSLHQSNTLRPWDLIPATW, the amyloid nucleation score was “inactive”.
In the case of ISNGVNPGVFDAVSWLDWAV, the amyloid nucleation score is reported as “inactive”.
In the case of VLWDGF, the amyloid nucleation score is reported as “inactive”.
For VRVLWI, the amyloid nucleation score was “inactive”.
Work on NEGWPLWQWSSAVKHTFSKR yielded an amyloid nucleation score of 0.422 ± 0.31.
For VTSVRPIYSRCLLNYMLRSV, the amyloid nucleation score was “inactive”.
For VGIALASIK, the amyloid nucleation score was “inactive”.
For QRKTYRTVEHGMHSSSNL, the amyloid nucleation score was “inactive”.
With DYATESFTVITLLGILLDRG the amyloid nucleation score was “inactive”.
With DQDKLFSEIRAMKFCCSFPP the amyloid nucleation score was “inactive”.
In the case of NTEGCSSQICRN, the amyloid nucleation score is reported as “inactive”.
In the case of DRHSRCQ, the amyloid nucleation score is reported as “inactive”.
In the case of CYIMTYKSLNTF, the amyloid nucleation score is reported as “inactive”.
For FADYFASSIFWYRCASHLGW, the amyloid nucleation score was “inactive”.
With MPSRHFLGY the amyloid nucleation score was “inactive”.
With YANDANSCDWCICAFDRRSC the amyloid nucleation score was “inactive”.
With RYDWLLGSVWVFLLA the amyloid nucleation score was “inactive”.
Substance EVYLETCRGILFCALDTIFG has an amyloid nucleation score of -0.264 ± 1.
For PVKRVIYSRGYVQKCPLCP, the amyloid nucleation score was “inactive”.
In the case of YIYNSLLYI, the amyloid nucleation score is reported as “inactive”.
For HCRDEYYIYNRI, the amyloid nucleation score was “inactive”.
In the case of HKWAI, the amyloid nucleation score is reported as “inactive”.
In the case of RLYNKSVTLAWRRFSGTKEL, the amyloid nucleation score is reported as “inactive”.
With KRRSTRL the amyloid nucleation score was “inactive”.
For RLETMGLRNNVVCNSSEALQ, the amyloid nucleation score was “inactive”.
For YMGLTLSVMRPGMTYFPKMF, the amyloid nucleation score was “inactive”.
For TKSAYRWSRKVRNEFQGSMG, the amyloid nucleation score was “inactive”.
In the case of NENTNLIRLNGTDMRAYKLW, the amyloid nucleation score is reported as “inactive”.
For PYAILFNAWNLSAPMACSWV, the amyloid nucleation score was “inactive”.
In the case of RSRDIGVFTGVQCLVRYRRY, the amyloid nucleation score is reported as “inactive”.
With HCHDVGVLLIKFCNNLWCSH the amyloid nucleation score was 1.99 ± 0.1.
For FSGRFHMENTMYHTIYKIKS, the amyloid nucleation score was “inactive”.
For TVLLIGNMWTYWAYMQCSWG, the amyloid nucleation score was “inactive”.
With WLFMIARTYR the amyloid nucleation score was “inactive”.
With GYQDAFIP the amyloid nucleation score was “inactive”.
For PLEGTALRHMVSMYYLSCWT, the amyloid nucleation score was “inactive”.
In the case of VKVLWFSDCSSLYCHSVDGP, the amyloid nucleation score is reported as “inactive”.
With SIYYSAILMGYWMDVKSLQY the amyloid nucleation score was “inactive”.
In the case of WCGGDYVLKNGKFALGVVGS, the amyloid nucleation score is reported as “inactive”.
For KRITLWCLCFRSYDHEMMV, the amyloid nucleation score was “inactive”.
In the case of RVTFWPFVVSAFRVMYGICK, the amyloid nucleation score is reported as “inactive”.
In the case of SECRTRLWLRESYNFSPDVK, the amyloid nucleation score is reported as “inactive”.
